Article PMC5919072

Columns and labels:
Experiment in all cases: SEC-MALS; static light scattering (MiniDAWN TREOS, three angles) inline with size exclusion on Superdex S75 10/300; 100 mM Na-phosphate pH 7.4, 400 mM NaCl; PfMDH-WT injected at 1.0 mg/ml
[1] = target: Wild-type malate dehydrogenase from Plasmodium falciparum (PfMDH-WT), His6-tagged (Plasmodium falciparum)
[2] = target: PfMDH-E18W, His6-tagged (Plasmodium falciparum)
[3] = target: PfMDH-E18Q, His6-tagged (Plasmodium falciparum)
[4] = target: PfMDH-V190W, His6-tagged (Plasmodium falciparum)

Wild-type malate dehydrogenase from Plasmodium falciparum (PfMDH-WT), His6-tagged (enzyme)
stoichiometry N [1]: 4

PfMDH-E18W, His6-tagged (enzyme)
stoichiometry N [2]: 2

PfMDH-E18Q, His6-tagged (enzyme)
stoichiometry N [3]: 4

PfMDH-V190W, His6-tagged (enzyme)
stoichiometry N [4]: 2
